Reference: the supplement of paper PMC5998384

How the values were obtained:
HeLa Kyoto [1] = assay: melting temperature (median over replicates), in situ; higher = more thermally stable
HeLa Kyoto [2] = assay: solubility change mitosis vs G1/S (difference of NP-40 vs SDS log2 ratios) (log2 ratio difference); higher = more soluble in mitosis
HeLa Kyoto [3] = assay: solubility in G1/S (NP-40 vs SDS abundance) (log2 ratio); higher = more soluble; conditions: cell cycle stage: G1/S
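For melting temperature (median over replicates), in situ in this document: HeLa Kyoto cells synchronized by double thymidine or nocodazole block, proteins quantified by TMT10plex mass spectrometry, three independent biological replicates.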
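For solubility change mitosis vs G1/S (difference of NP-40 vs SDS log2 ratios) in this document: synchronized HeLa Kyoto cells (double thymidine block for G1/S, nocodazole release for mitosis), protein amounts in NP-40 versus SDS lysates quantified by mass spectrometry, three biological replicates.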
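For solubility in G1/S (NP-40 vs SDS abundance) in this document: HeLa Kyoto cells arrested at G1/S by double thymidine block, proteins quantified by TMT10plex mass spectrometry in mild NP-40 versus SDS extracts, three biological replicates.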

Chain of GNPTG (chain, as listed by the source): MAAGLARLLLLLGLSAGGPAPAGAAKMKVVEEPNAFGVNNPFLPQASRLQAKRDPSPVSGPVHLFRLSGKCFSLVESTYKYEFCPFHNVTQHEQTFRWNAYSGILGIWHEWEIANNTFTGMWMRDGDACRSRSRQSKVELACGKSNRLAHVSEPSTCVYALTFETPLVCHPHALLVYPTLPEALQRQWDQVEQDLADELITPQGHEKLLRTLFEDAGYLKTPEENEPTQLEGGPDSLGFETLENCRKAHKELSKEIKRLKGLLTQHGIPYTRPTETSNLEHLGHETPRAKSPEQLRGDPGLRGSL
Chain of WNK2 (chain, as listed by the source): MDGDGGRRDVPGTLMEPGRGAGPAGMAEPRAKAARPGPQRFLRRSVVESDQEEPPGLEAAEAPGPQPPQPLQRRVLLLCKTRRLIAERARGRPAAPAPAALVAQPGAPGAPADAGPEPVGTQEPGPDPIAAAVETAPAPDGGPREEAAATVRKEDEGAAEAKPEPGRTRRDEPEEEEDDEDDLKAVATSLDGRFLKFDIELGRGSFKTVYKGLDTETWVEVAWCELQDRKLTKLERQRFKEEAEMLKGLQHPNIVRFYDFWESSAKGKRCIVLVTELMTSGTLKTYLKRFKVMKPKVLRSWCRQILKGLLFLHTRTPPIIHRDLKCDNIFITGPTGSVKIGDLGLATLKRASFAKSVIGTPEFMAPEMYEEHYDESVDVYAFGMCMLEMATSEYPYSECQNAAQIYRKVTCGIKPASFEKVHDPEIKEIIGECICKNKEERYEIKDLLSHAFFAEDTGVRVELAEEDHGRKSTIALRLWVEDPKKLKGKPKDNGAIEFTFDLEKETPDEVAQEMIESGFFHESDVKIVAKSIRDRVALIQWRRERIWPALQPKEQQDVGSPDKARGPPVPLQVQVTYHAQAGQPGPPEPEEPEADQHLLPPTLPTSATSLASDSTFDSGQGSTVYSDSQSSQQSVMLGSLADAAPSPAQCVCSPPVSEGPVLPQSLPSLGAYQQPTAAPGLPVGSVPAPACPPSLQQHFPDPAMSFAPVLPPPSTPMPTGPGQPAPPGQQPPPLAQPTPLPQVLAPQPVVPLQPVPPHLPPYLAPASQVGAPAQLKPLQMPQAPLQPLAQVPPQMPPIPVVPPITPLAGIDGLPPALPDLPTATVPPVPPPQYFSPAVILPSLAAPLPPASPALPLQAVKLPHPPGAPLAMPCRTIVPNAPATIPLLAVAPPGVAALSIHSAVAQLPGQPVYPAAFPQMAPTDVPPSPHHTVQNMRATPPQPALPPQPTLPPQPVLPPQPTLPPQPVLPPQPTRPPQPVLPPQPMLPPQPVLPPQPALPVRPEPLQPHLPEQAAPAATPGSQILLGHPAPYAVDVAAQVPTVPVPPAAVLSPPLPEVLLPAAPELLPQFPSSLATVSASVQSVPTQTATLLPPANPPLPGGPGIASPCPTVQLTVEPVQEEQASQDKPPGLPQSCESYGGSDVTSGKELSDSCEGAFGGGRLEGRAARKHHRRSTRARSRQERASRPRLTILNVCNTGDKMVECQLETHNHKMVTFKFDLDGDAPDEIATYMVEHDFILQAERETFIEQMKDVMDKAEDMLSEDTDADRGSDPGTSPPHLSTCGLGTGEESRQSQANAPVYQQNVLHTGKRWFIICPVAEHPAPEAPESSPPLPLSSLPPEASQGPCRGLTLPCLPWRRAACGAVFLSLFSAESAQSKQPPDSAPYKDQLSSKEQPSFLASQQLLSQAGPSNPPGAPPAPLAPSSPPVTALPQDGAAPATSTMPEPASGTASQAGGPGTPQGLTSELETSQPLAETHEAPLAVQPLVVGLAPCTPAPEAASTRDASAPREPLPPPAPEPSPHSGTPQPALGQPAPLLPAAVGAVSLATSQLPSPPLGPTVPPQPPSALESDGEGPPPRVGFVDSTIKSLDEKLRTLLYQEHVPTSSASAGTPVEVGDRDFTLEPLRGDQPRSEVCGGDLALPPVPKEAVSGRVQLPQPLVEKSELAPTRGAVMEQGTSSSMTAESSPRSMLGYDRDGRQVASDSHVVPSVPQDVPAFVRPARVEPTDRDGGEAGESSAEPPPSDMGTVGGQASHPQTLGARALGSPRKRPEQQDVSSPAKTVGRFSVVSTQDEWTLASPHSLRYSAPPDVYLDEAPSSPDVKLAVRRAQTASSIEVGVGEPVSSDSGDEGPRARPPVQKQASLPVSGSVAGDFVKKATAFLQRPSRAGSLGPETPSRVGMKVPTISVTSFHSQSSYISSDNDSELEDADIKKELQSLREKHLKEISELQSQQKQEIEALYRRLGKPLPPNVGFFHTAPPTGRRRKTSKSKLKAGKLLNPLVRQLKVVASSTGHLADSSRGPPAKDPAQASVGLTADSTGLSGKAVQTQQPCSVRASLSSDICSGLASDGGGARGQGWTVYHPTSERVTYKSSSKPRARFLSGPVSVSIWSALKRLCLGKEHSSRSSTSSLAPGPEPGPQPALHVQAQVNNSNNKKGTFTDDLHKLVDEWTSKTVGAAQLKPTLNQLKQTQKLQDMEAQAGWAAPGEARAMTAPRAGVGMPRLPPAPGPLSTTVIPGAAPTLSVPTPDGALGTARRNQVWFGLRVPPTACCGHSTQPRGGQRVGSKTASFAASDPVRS

Substance	melting temperature (HeLa Kyoto [1]; cell cycle stage: G1/S) [°C]	melting temperature (HeLa Kyoto [1]; cell cycle stage: mitosis) [°C]	solubility change mitosis (log2) (HeLa Kyoto [2])	solubility in G1/S (log2) (HeLa Kyoto [3])
MASPAASSVRPPRPKKEPQTLVIPKNAAEEQKLKLERLMKNPDKAVPIPEKMSEWAPRPPPEFVRDVMGSSAGAGSGEFHVYRHLRRREYQRQDYMDAMAEKQKLDAEFQKRLEKNKIAAEEQTAKRRKKRQKLKEKKLLAKKMKLEQKKQEGPGQPKEQGSSSSAEASGTEEEEEVPSFTMGR [PRKRIP1]	53.3	53.6	0.169	0.499
MNRPAPVEISYENMRFLITHNPTNATLNKFTEELKKYGVTTLVRVCDATYDKAPVEKEGIHVLDWPFDDGAPPPNQIVDDWLNLLKTKFREEPGCCVAVHCVAGLGRAPVLVALALIECGMKYEDAVQFIRQKRRGAFNSKQLLYLEKYRPKMRLRFRDTNGHCCVQ [PTP4A2]	53.7	54.1	-0.087	-0.226
MGQQVGRVGEAPGLQQPQPRGIRGSSAARPSGRRRDPAGRTTETGFNIFTQHDHFASCVEDGFEGDKTGGSSPEALHRPYGCDVEPQALNEAIRWSSKENLLGATESDPNLFVALYDFVASGDNTLSITKGEKLRVLGYNQNGEWSEVRSKNGQGWVPSNYITPVNSLEKHSWYHGPVSRSAAEYLLSSLINGSFLVRESESSPGQLSISLRYEGRVYHYRINTTADGKVYVTAESRFSTLAELVHHHSTVADGLVTTLHYPAPKCNKPTVYGVSPIHDKWEMERTDITMKHKLGGGQYGEVYVGVWKKYSLTVAVKTLKEDTMEVEEFLKEAAVMKEIKHPNLVQLLGVCTLEPPFYIVTEYMPYGNLLDYLRECNREEVTAVVLLYMATQISSAMEYLEKKNFIHRDLAARNCLVGENHVVKVADFGLSRLMTGDTYTAHAGAKFPIKWTAPESLAYNTFSIKSDVWAFGVLLWEIATYGMSPYPGIDLSQVYDLLEKGYRMEQPEGCPPKVYELMRACWKWSPADRPSFAETHQAFETMFHDSSISEEVAEELGRAASSSSVVPYLPRLPILPSKTRTLKKQVENKENIEGAQDATENSASSLAPGFIRGAQASSGSPALPRKQRDKSPSSLLEDAKETCFTRDRKGGFFSSFMKKRNAPTPPKRSSSFREMENQPHKKYELTGNFSSVASLQHADGFSFTPAQQEANLVPPKCYGGSFAQRNLCNDDGGGGGGSGTAGGGWSGITGFFTPRLIKKTLGLRAGKPTASDDTSKPFPRSNSTSSMSSGLPEQDRMAMTLPRNCQRSKLQLERTVSTSSQPEENVDRANDMLPKKSEESAAPSRERPKAKLLPRGATALPLRTPSGDLAITEKDPPGVGVAGVAAAPKGKEKNGGARLGMAGVPEDGEQPGWPSPAKAAPVLPTTHNHKVPVLISPTLKHTPADVQLIGTDSQGNKFKLLSEHQVTSSGDKDRPRRVKPKCAPPPPPVMRLLQHPSICSDPTEEPTALTAGQSTSETQEGGKKAALGAVPISGKAGRPVMPPPQVPLPTSSISPAKMANGTAGTKVALRKTKQAAEKISADKISKEALLECADLLSSALTEPVPNSQLVDTGHQLLDYCSGYVDCIPQTRNKFAFREAVSKLELSLQELQVSSAAAGVPGTNPVLNNLLSCVQEISDVVQR [ABL2]	49.2	49.1	-0.139	0.0755
MMGCFALQTVDTELTADSVEWCPLQGCRHLLACGTYQLRRPEDRPAGPQNKGGMEVKEPQVRLGRLFLYSFNDNNSIHPLVEVQRKDTSAILDMKWCHIPVAGHALLGLADASGSIQLLRLVESEKSHVLEPLSSLALEEQCLALSLDWSTGKTGRAGDQPLKIISSDSTGQLHLLMVNETRPRLQKVASWQAHQFEAWIAAFNYWHPEIVYSGGDDGLLRGWDTRVPGKFLFTSKRHTMGVCSIQSSPHREHILATGSYDEHILLWDTRNMKQPLADTPVQGGVWRIKWHPFHHHLLLAACMHSGFKILNCQKAMEERQEATVLTSHTLPDSLVYGADWSWLLFRSLQRAPSWSFPSNLGTKTADLKGASELPTPCHECREDNDGEGHARPQSGMKPLTEGMRKNGTWLQATAATTRDCGVNPEEADSAFSLLATCSFYDHALHLWEWEGN [DPH7]		57.1	-0.0679	-0.0249
CHD9		50.1	0.0275	-0.312
MPKTMHFLFRFIVFFYLWGLFTAQRQKKEESTEEVKIEVLHRPENCSKTSKKGDLLNAHYDGYLAKDGSKFYCSRTQNEGHPKWFVLGVGQVIKGLDIAMTDMCPGEKRKVVIPPSFAYGKEGYAEGKIPPDATLIFEIELYAVTKGPRSIETFKQIDMDNDRQLSKAEINLYLQREFEKDEKPRDKSYQDAVLEDIFKKNDHDGDGFISPKEYNVYQHDEL [FKBP7]	55	55.8	0.0889	0.654
MLGLCGQRLPAAWVLLLLPFLPLLLLAAPAPHRASYKPVIVVHGLFDSSYSFRHLLEYINETHPGTVVTVLDLFDGRESLRPLWEQVQGFREAVVPIMAKAPQGVHLICYSQGGLVCRALLSVMDDHNVDSFISLSSPQMGQYGDTDYLKWLFPTSMRSNLYRICYSPWGQEFSICNYWHDPHHDDLYLNASSFLALINGERDHPNATVWRKNFLRVGHLVLIGGPDDGVITPWQSSFFGFYDANETVLEMEEQLVYLRDSFGLKTLLARGAIVRCPMAGISHTAWHSNRTLYETCIEPWLS [PPT2]	56.4	55.9	-0.131	0.733
MAAPEAPPLDRVFRTTWLSTECDSHPLPPSYRKFLFETQAADLAGGTTVAAGNLLNESEKDCGQDRRAPGVQPCRLVTMTSVVKTVYSLQPPSALSGGQPADTQTRATSKSLLPVRSKEVDVSKQLHSGGPENDVTKITKLRRENGQMKATDTATRRNVRKGYKPLSKQKSEEELKDKNQLLEAVNKQLHQKLTETQGELKDLTQKVELLEKFRDNCLAILESKGLDPALGSETLASRQESTTDHMDSMLLLETLQEELKLFNETAKKQMEELQALKVKLEMKEERVRFLEQQTLCNNQVNDLTTALKEMEQLLEM [KNSTRN]	48.7	50.5	0.517	0.269
MAMSFEWPWQYRFPPFFTLQPNVDTRQKQLAAWCSLVLSFCRLHKQSSMTVMEAQESPLFNNVKLQRKLPVESIQIVLEELRKKGNLEWLDKSKSSFLIMWRRPEEWGKLIYQWVSRSGQNNSVFTLYELTNGEDTEDEEFHGLDEATLLRALQALQQEHKAEIITVSDGRGVKFF [VPS25]	51.2	51.3	-0.086	-0.0882
MDFENLFSKPPNPALGKTATDSDERIDDEIDTEVEETQEEKIKLECEQIPKKFRHSAISPKSSLHRKSRSKDYDVYSDNDICSQESEDNFAKELQQYIQAREMANAAQPEESTKKEGVKDTPQAAKQKNKNLKAGHKNGKQKKMKRKWPGPGNKGSNALLRNSGSQEEDGKPKEKQQHLSQAFINQHTVERKGKQICKYFLERKCIKGDQCKFDHDAEIEKKKEMCKFYVQGYCTRGENCLYLHNEYPCKFYHTGTKCYQGEYCKFSHAPLTPETQELLAKVLDTEKKSCK [ZC3H8]	55.1	55.1	0.444	-0.126
MEELTIWEQHTATLSKDPRRGFGIAISGGRDRPGGSMVVSDVVPGGPAEGRLQTGDHIVMVNGVSMENATSAFAIQILKTCTKMANITVKRPRRIHLPATKASPSSPGRQDSDEDDGPQRVEEVDQGRGYDGDSSSGSGRSWDERSRRPRPGRRGRAGSHGRRSPGGGSEANGLALVSGFKRLPRQDVQMKPVKSVLVKRRDSEEFGVKLGSQIFIKHITDSGLAARHRGLQEGDLILQINGVSSQNLSLNDTRRLIEKSEGKLSLLVLRDRGQFLVNIPPAVSDSDSSPLEDISDLASELSQAPPSHIPPPPRHAQRSPEASQTDSPVESPRLRRESSVDSRTISEPDEQRSELPRESSYDIYRVPSSQSMEDRGYSPDTRVVRFLKGKSIGLRLAGGNDVGIFVSGVQAGSPADGQGIQEGDQILQVNDVPFQNLTREEAVQFLLGLPPGEEMELVTQRKQDIFWKMVQSRVGDSFYIRTHFELEPSPPSGLGFTRGDVFHVLDTLHPGPGQSHARGGHWLAVRMGRDLREQERGIIPNQSRAEQLASLEAAQRAVGVGPGSSAGSNARAEFWRLRGLRRGAKKTTQRSREDLSALTRQGRYPPYERVVLREASFKRPVVILGPVADIAMQKLTAEMPDQFEIAETVSRTDSPSKIIKLDTVRVIAEKDKHALLDVTPSAIERLNYVQYYPIVVFFIPESRPALKALRQWLAPASRRSTRRLYAQAQKLRKHSSHLFTATIPLNGTSDTWYQELKAIIREQQTRPIWTAEDQLDGSLEDNLDLPHHGLADSSADLSCDSRVNSDYETDGEGGAYTDGEGYTDGEGGPYTDVDDEPPAPALARSSEPVQADESQSPRDRGRISAHQGAQVDSRHPQGQWRQDSMRTYEREALKKKFMRVHDAESSDEDGYDWGPATDL [TJP3]	50.3	50.8	0.0692	-0.105
WNK2		52.6	-0.0197	0.2
MASSASARTPAGKRVINQEELRRLMKEKQRLSTSRKRIESPFAKYNRLGQLSCALCNTPVKSELLWQTHVLGKQHREKVAELKGAKEASQGSSASSAPHSVKRKAPDADDQDVKRAKATLVPQVQPSTSAWTTNFDKIGKEFIRATPSKPSGLSLLPDYEDEEEEEEEEEGDGERKRGDASKPLSDAQGKEHSVSSSREVTSSVLPNDFFSTNPPKAPIIPHSGSIEKAEIHEKVVERRENTAEALPEGFFDDPEVDARVRKVDAPKDQMDKEWDEFQKAMRQVNTISEAIVAEEDEEGRLDRQIGEIDEQIECYRRVEKLRNRQDEIKNKLKEILTIKELQKKEEENADSDDEGELQDLLSQDWRVKGALL [ZNF830]	56.2	54.4	0.0142	0.423
MDALEGESFALSFSSASDAEFDAVVGYLEDIIMDDEFQLLQRNFMDKYYLEFEDTEENKLIYTPIFNEYISLVEKYIEEQLLQRIPEFNMAAFTTTLQHHKDEVAGDIFDMLLTFTDFLAFKEMFLDYRAEKEGRGLDLSSGLVVTSLCKSSSLPASQNNLRH [ARL2BP]	50.9	53	0.0405	-0.148
MGNTLTCCVSPNASPKLGRRAGSAELYCASDIYEAVSGDAVAVAPAVVEPAELDFGEGEGHHLQHISDREMPEDLALESNPSDHPRASTIFLSKSQTDVREKRKSNHLNHVSPGQLTKKYSSCSTIFLDDSTVSQPNLRTTVKCVTLAIYYHIKNRDANRSLDIFDERSHPLTREKVPEEYFKHDPEHKFIYRFVRTLFSAAQLTAECAIVTLVYLERLLTYAEIDICPTNWKRIVLGAILLASKVWDDQAVWNVDYCQILKDITVEDMNEMERHFLELLQFNINVPASVYAKYYFDLRSLADDNNLNFLFAPLSKERAQNLEAISRLCEDKDLCRAAMRRSFSADNFIGIQRSKAILS [CCNYL1]	48.9	49.2	-0.0896	-0.167
MGREFGNLTRMRHVISYSLSPFEQRAYPHVFTKGIPNVLRRIRESFFRVVPQFVVFYLIYTWGTEEFERSKRKNPAAYENDK [UQCRQ]	53.1	51.8	-0.186	-0.497
GNPTG	54	53.9	0.688	-0.582
MGEQPIFSTRAHVFQIDPNTKKNWVPTSKHAVTVSYFYDSTRNVYRIISLDGSKAIINSTITPNMTFTKTSQKFGQWADSRANTVYGLGFSSEHHLSKFAEKFQEFKEAARLAKEKSQEKMELTSTPSQESAGGDLQSPLTPESINGTDDERTPDVTQNSEPRAEPTQNALPFSHSSAISKHWEAELATLKGNNAKLTAALLESTANVKQWKQQLAAYQEEAERLHKRVTELECVSSQANAVHTHKTELNQTIQELEETLKLKEEEIERLKQEIDNARELQEQRDSLTQKLQEVEIRNKDLEGQLSDLEQRLEKSQNEQEAFRNNLKTLLEILDGKIFELTELRDNLAKLLECS [HOMER1]	51	51.9	0.185	0.426
